The values below come from patent publication US20230272097A1 (PETMEDIX, published 2023).

The target in assay [1] is T1, canine OX40L, full length membrane form, expressed on the cell surface (HEK293 or MEF cells stably … (canine (dog, beagle))).
T1 construct: The same protein is used on HEK293 and on MEF cells; also called HEK-OX40L; OX40L expressing HEK293 cells
T1 chain: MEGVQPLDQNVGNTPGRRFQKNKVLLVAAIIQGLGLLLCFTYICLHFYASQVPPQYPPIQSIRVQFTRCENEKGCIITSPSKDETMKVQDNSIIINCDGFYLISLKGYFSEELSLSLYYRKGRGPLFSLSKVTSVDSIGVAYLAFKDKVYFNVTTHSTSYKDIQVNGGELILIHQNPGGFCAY
Briefly: flow cytometry titration on HEK cells expressing OX40L; Kd (EC50) from GeoMean vs concentration, Prism four parameter fit. How it is done: FIG. 10. Affinity determination for antibodies that bind OX40L on HEK cells expressing OX40L. Graphs are generated by plotting GeoMean arbitrary units (AU) against Log₁₀ [concentration]. Kd (EC₅₀) was calculated using Prism.
(§1) Specific binding to cells expressing OX40L is confirmed by purifying mAb from the CHO supernatant using protein A resin (MabSelect, Cytiva). In brief, MabSelect resin is washed in PBS and diluted to have a 10% slurry. An appropriate volume of the 10% slurry is added to the supernatant and incubated 5-10′ at RT before being loaded into a filter column. After 3 washes with PBS the antibodies are eluted using IgG elute buffer (Pierce) directly into neutralisation buffer (10 mM TRIS pH8.0), 8:1 IgG elute: neutralisation buffer ratio. Antibody solutions are quantified measuring absorbance at 280 nm, using a Nanodrop One (Thermo Fisher). Serial 1:3 dilutions of purified antibodies ranging from 6.6 μM to 66 pM are prepared in FACS buffer and are used to stain HEK293 or MEF cells (or any other commonly used cell lines) expressing canine OX40L.
A general note: Flow cytometry measures light scatter and fluorescence of single cells or particles in a stream.

Assay [2] addresses T1, canine OX40L, full length membrane …. Briefly: flow cytometry titration on MEF cells expressing OX40L; Kd (EC50) from GeoMean vs concentration, Prism four parameter fit. The procedure:
FIG. 11. Affinity determination for antibodies that bind OX40L on MEF cells expressing OX40L. Graphs are generated by plotting GeoMean arbitrary units (AU) against Log₁₀ [concentration]. Kd (EC₅₀) was calculated using Prism.
as §1

Assay [3] shares this target. Briefly: flow cytometry titration on HEK cells expressing OX40L; Kd (EC50), Prism. The procedure: FIG. 12. Affinity determination for antibodies that bind OX40L formulated in canine IgGB Def2 and Def7 backbones. The experiment was performed using HEK cells expressing OX40L. Graphs are generated by plotting GeoMean arbitrary units (AU) values against Log₁₀ [concentration]. Kd (EC₅₀) was calculated using Prism.
as §1

For assay [4] the target is unchanged. Briefly: flow cytometry, single dose, OX40L expressing HEK293 cells against the parental line, fluorescently labelled secondary antibody. The procedure: CHO cells supernatants containing candidate antibodies are diluted to 1, 5 or 10 μg/ml in FACS buffer (PBS containing 3% FBS) and screened for their ability to bind canine OX40L proteins expressed on cell surface. In brief, HEK293 or MEF cells (or any other commonly used cell lines) expressing canine OX40L at the cell surface are incubated with 100 μl of FACS buffer containing the candidate antibody for 30′ on ice. As a control the parental cell line (HEK293 or MEF cells not expressing OX40L) is also stained with the same antibody solution. After staining, cells are washed with 150 μl FACS buffer followed by centrifugation at 300 g for 3 min. Supernatant is removed, and the cell pellet is resuspended in FACS buffer containing a 1:1000 dilution of a fluorescently labelled secondary antibody recognising the human or canine Fc region of the test antibody for 30 min in the dark, followed by washing with 150 μl FACS buffer and centrifugation at 300 g for 3 mins. Cells are resuspended in FACS buffer and flow cytometry performed using either a […] cytometer, followed by data analysis using FlowJo (FIG. 8).

In general, Kd refers to a measure of binding affinity in units of concentration.

B1: PMX019 (antibody, V domains shown)
VH: EVQLVESGGDLVKPGGSLRLSCVASGFTFSSNYMSWIRQAPGKGLQWVSQISGDGIYTNYADAMKGRFTISRDNAKNTLYLQMNSLRDEDTALYYCATGIYPNAFGYWGQGTLVTVSS
VL: SYVLTQLSSKNVTLKQPAHITCGGDNIGSKSVHWYQQKLGQAPVLIIYYDSSRPTGIPERFSGANSGNTATLTISGALAEDEADYYCQVWDSSANVFGGGTHLTVL
notes: Canine variable regions; also called PMX19
As for B1, the figures for the Kd in assay [1] and in assay [2] were 4.49 nM and 38.3 nM, respectively.

B2: PMX020 (antibody, V domains shown)
VH: EVQLVESGGDLVKPGGSLRISCVASGFTFSSYHMNWVRQAPGKGLQWVAHISSGGTFTSYADAVKGRFTISRDNAKNTLYLQMISLRAEDTAVYYCASGLFLVVGGGNYWGRGTLVTVSS
VL: SYVLTQLPSKNVTLKQPAHITCGGDNIGSKSVHWYQQKLGQAPVLIIYSDSSRPTGIPERFSGANSGNTATLTISGALAEDEADYYCQVWDSSASVFGGGTHLTVL
notes: Canine variable regions
B2: the dissociation constant Kd came to 2.8 nM in assay [1] and 0.71 nM in assay [2].

B3: PMX020 formulated in canine IgGB Def2 backbone (antibody)
heavy: EVQLVESGGDLVKPGGSLRISCVASGFTFSSYHMNWVRQAPGKGLQWVAHISSGGTFTSYADAVKGRFTISRDNAKNTLYLQMISLRAEDTAVYYCASGLFLVVGGGNYWGRGTLVTVSSASTTAPSVFPLAPSCGSTSGSTVALACLVSGYFPEPVTVSWNSGSLTSGVHTFPSVLQSSGLYSLSSMVTVPSSRWPSETFTCNVAHPASKTKVDKPVPKRENGRVPRPPDCPKCPAPESLGGPSVFIFPPKPKDTLLIARTPEVTCVVVDLGREDPEVQISWFVDGKQMQTAKTQPREEQFNGTYRVVSVLPIGHQDWLKGKQFTCKVNHIGLPSPIERTISKARGQAHQPSVYVLPPSREELSKNTVSLTCLIKDFFPPDIDVEWQSNGQQEPESKYRTTPPQLDEDGSYFLYSKLSVDKSRWQRGDTFICAVMHEALHNHYTQKSLSHSPGK
light: SYVLTQLPSKNVTLKQPAHITCGGDNIGSKSVHWYQQKLGQAPVLIIYSDSSRPTGIPERFSGANSGNTATLTISGALAEDEADYYCQVWDSSASVFGGGTHLTVL
notes: also called PMX020 Def2; not shown: light chain constant region (human kappa, or canine kappa or lambda)
Take B3: in assay [3], the dissociation constant Kd turned out to be 45.4 nM.

B4: PMX020 formulated in canine IgGB Def7 backbone (antibody)
heavy: EVQLVESGGDLVKPGGSLRISCVASGFTFSSYHMNWVRQAPGKGLQWVAHISSGGTFTSYADAVKGRFTISRDNAKNTLYLQMISLRAEDTAVYYCASGLFLVVGGGNYWGRGTLVTVSSASTTAPSVFPLAPSCGSTSGSTVALACLVSGYFPEPVTVSWNSGSLTSGVHTFPSVLQSSGLYSLSSMVTVPSSRWPSETFTCNVAHPASKTKVDKPVPKRENGRVPRPPDCPKCPAPEAAGGPSVFIFPPKPKDTLLIARTPEVTCVVVDLDPEDPEVQISWFVDGKQMQTAKTQPREEQFNGTYRVVSVLPIGHQDWLKGKQFTCKVNNKALGSPIERTISKARGQAHQPSVYVLPPSREELSKNTVSLTCLIKDFFPPDIDVEWQSNGQQEPESKYRTTPPQLDEDGSYFLYSKLSVDKSRWQRGDTFICAVMHEALHNHYTQKSLSHSPGK
light: SYVLTQLPSKNVTLKQPAHITCGGDNIGSKSVHWYQQKLGQAPVLIIYSDSSRPTGIPERFSGANSGNTATLTISGALAEDEADYYCQVWDSSASVFGGGTHLTVL
notes: also called PMX020 Def7; not shown: light chain constant region (human kappa, or canine kappa or lambda)
On to B4, for which the affinity in assay [3], expressed as Kd, was 58.1 nM.

B5: PMX 024 (antibody, V domains shown)
VH: EVLLMESGGDLVKPGGSLRLSCVASGFTFSSNYMYWIRQAPGKGLQWVSQISGDGSFTNYADAVKGRFTISRDNAKNTLYLQMNSLRDEDTAVFYCASGIYPNAFGYWGQGTLVTVSS
VL: SYVLTQPPSKNVTLKQPAHITCGGDNIGSKSVHWYQQKLGQAPVLIIYYDSSRPTGIPERFSGANSGNTATLTISGALAEDEADYYCQVRDSSANVFGGGTHLTVL
notes: anti-canine OX40L candidate
Take B5: in assay [4], the binding result is given as “binds”.

B6: PMX016 (antibody, V domains shown)
VH: EVQLVESGGDLVKPGGSLRLSCVASGFTFSNYHMNWVRQAPGKGLQWVAYITSDGIVSSYADVVKGRFTISRDNAKNTLFLQMNSLRAEDTAVYYCASGLFLVVGGGTFWGQGTLVTVSS
VL: SYVLTQLPSKNVTLKQPAHITCGGDNIGSKSVHWYQQKLGQAPVLIIYSDSSRPTGIPERFSGANSGNTATLTISGALAEDEADYYCQVWDSSAKASVFGGGTHLTVL
notes: Canine variable regions
As for B6, the Kd in assay [1] came out at 37.4 nM; in assay [2], 108 nM.

B7: PMX014 formulated in canine IgGB Def2 backbone (antibody)
heavy: EVQLVESGGDLVKPGGSLRLSCVASGFTFSNFHMSWVRQAPGKGLQWVAYINSGGFNINYEDAVRGRFTISRDNAKNTLYLQMNSLRAEDTAIYYCARDWDTHLDTNWFYYWGQGTLVTVSSASTTAPSVFPLAPSCGSTSGSTVALACLVSGYFPEPVTVSWNSGSLTSGVHTFPSVLQSSGLYSLSSMVTVPSSRWPSETFTCNVAHPASKTKVDKPVPKRENGRVPRPPDCPKCPAPESLGGPSVFIFPPKPKDTLLIARTPEVTCVVVDLGREDPEVQISWFVDGKQMQTAKTQPREEQFNGTYRVVSVLPIGHQDWLKGKQFTCKVNHIGLPSPIERTISKARGQAHQPSVYVLPPSREELSKNTVSLTCLIKDFFPPDIDVEWQSNGQQEPESKYRTTPPQLDEDGSYFLYSKLSVDKSRWQRGDTFICAVMHEALHNHYTQKSLSHSPGK
light: SYVLTQLPSKNVTLKQSAHITCRGDNIGSKSVHWYQQKLGQAPVLIIYYDSSRPTGIPERFSGANSGNTATLTISGALAEDEADYYCQVWDISAKASVFGGGTHLTVL
notes: also called PMX014 Def2; not shown: light chain constant region (human kappa, or canine kappa or lambda)
Molecule B7 displayed a dissociation constant (Kd) in assay [3] of 74.6 nM.

B8: PMX017 (antibody, V domains shown)
V domain 1: EVQLVESGGDLVKPGGSLRLSCVASGFTFSSYHMSWVRQAPGKGLQWVAYIASGGTVTTYADAVRGRFTISRDNAKNMLYLQMNSLRAEDSAVYYCTRWKGGTFGYGMDYWGHGTSLFVSS
V domain 2: SYVLTQLPSKNVTLKQPAHITCGGDNIGSKSVHWYQQKLGQAPVLIIYYDNNRPAGIPERFSGANSGNTATLTISGALAEDEADYYCQVWDSSAKASVFGGGTHLTVL
notes: Canine variable regions
For the molecule B8, the dissociation constant (Kd) came to 30 nM in assay [1] and 10.7 nM in assay [2].

B9: PMX013 (antibody, V domains shown)
VH: ELTLQESGPGLVKPSQTLSLTCVVSGGSVTSSHYWNWIRQRPGRGLEWMGSWTGGTNYNPAFQGRISVTSDTAKNQFSLQLSSLTTEDTAVYYCARGGGYSGTWKDYYVMDYWGHGTSVIVSS
VL: SYVLTQLPSKNVTLNQPAHITCGGDNLGSKSVHWYQQKLGQAPVLIIYFDTSRPTGIPERFSGANSGNTATLTISGALAEDEADYYCQVWDSSAKASVFGGGTHLTVL
notes: Canine variable regions
Consider B9, for which the Kd in assay [1] is 165 nM; in assay [2] it was 22.7 nM.

B10: PMX018 (antibody, V domains shown)
VH: EVQLVESGGDLVKPGGSLRLSCVASGFTFSNYHMNWVRQAPGKGLQWVAYITNDGIVSSYADAVKGRFTISRDNAKNTLYLQMNSLRVEDTAVYYCASGLFLVVGGGTFWGQGTLVTVSS
VL: SYVLTQLPSKNVTLKQPAHITCGGDNIGSKSVHWYQHKLGQAPVLIIYYDSSRPTGIPERFSGANSGNTATLTISGALAEDEADYYCQVWDSSAKASVFGGGTHLTVL
notes: Canine variable regions
The molecule B10 returned a Kd in assay [1] of 23.6 nM.

B11: PMX014 formulated in canine IgGB Def7 backbone (antibody)
heavy: EVQLVESGGDLVKPGGSLRLSCVASGFTFSNFHMSWVRQAPGKGLQWVAYINSGGFNINYEDAVRGRFTISRDNAKNTLYLQMNSLRAEDTAIYYCARDWDTHLDTNWFYYWGQGTLVTVSSASTTAPSVFPLAPSCGSTSGSTVALACLVSGYFPEPVTVSWNSGSLTSGVHTFPSVLQSSGLYSLSSMVTVPSSRWPSETFTCNVAHPASKTKVDKPVPKRENGRVPRPPDCPKCPAPEAAGGPSVFIFPPKPKDTLLIARTPEVTCVVVDLDPEDPEVQISWFVDGKQMQTAKTQPREEQFNGTYRVVSVLPIGHQDWLKGKQFTCKVNNKALGSPIERTISKARGQAHQPSVYVLPPSREELSKNTVSLTCLIKDFFPPDIDVEWQSNGQQEPESKYRTTPPQLDEDGSYFLYSKLSVDKSRWQRGDTFICAVMHEALHNHYTQKSLSHSPGK
light: SYVLTQLPSKNVTLKQSAHITCRGDNIGSKSVHWYQQKLGQAPVLIIYYDSSRPTGIPERFSGANSGNTATLTISGALAEDEADYYCQVWDISAKASVFGGGTHLTVL
notes: also called PMX014 Def7; not shown: light chain constant region (human kappa, or canine kappa or lambda)
On to B11, for which the affinity in assay [3], expressed as Kd, was 74.2 nM.
